From patent US20200129532

Target: T1, HA-tagged VDR (vitamin D receptor), wild type (UniProt P11473)
T1 sequence: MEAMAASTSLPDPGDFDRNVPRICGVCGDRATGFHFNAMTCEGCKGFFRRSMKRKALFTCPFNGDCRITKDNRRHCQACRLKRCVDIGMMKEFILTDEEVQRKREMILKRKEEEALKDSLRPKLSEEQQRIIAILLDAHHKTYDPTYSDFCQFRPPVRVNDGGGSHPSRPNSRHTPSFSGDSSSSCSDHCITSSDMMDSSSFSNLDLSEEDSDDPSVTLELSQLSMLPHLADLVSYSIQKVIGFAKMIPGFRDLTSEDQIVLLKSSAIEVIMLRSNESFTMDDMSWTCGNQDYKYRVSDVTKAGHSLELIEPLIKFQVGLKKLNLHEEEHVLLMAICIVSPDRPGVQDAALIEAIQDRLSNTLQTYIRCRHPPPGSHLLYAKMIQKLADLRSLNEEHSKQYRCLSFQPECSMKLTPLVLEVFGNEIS

For enzymatically dead PCAF (D608A), the VDR acetylation was “but not with the enzymatically dead PCAF D608A mutant”.
